For one substance, duration of transient current blockades results are on record in article PMC4663120.

For this assay, the target named is FhuA ΔC/Δ5L (E. coli) (UniProt P06971). The experiment in a line: single-channel electrical recording on planar lipid bilayer.

Consider “nucleocapsid protein 7 (NCp7) (natural protein)”, for which the duration of transient current blockades was < 1 ms.
